The nanobody polyreactivity screen of Harvey et al. (2022)

Assay: yeast display, Sf9 membrane polyspecificity reagent, FACS + sequencing; frameworks hold sequencing errors
How it was run: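 Polyreactivity labels are assigned by the sorting gate from which each nanobody was recovered. The gates were low and high (top ~1%), set on anti-HA fluorescence for expression and streptavidin fluorescence for reagent binding. Before sorting, galactose-induced (36–48 hours) yeast display cells were stained for 1 hour at 4 °C with 10% biotinylated, detergent-solubilized Sf9 membrane reagent.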

QVQLVESGGGLVQAGGSLRLSCAASGSIFPYYTMGWYRQAPGKERELVAAISGSGTSTYYADSVKGRFTISRDNAKNTVYLQMNSLKPEDTADYYCAAPDPDKVRSEGYGYWGQGTHVTVSS
polyreactivity (PSR sort gate): low polyreactivity

QVQLVESGGGLVQAGGSLRLSCAASGSIFQAYVMGWYRQAPGTERELVATIDRRGGITYYADSVKGRFTISRDNAKNNVYLQMNSLKPEDTAVYYCATALIVLGPSRYEYWGQGTQVTVSS
polyreactivity (PSR sort gate): high polyreactivity

QVQLVESGGGLVQAGGSLRLSCAASGSIFQDYAMGWYRQAPGKERELVAAITSDGSTYYADSVKGRFTISRDNAKNTVYLQMNSLKPEDTAVYYCATDKLYGRTVRMDYWGQGTQVTVSS
polyreactivity (PSR sort gate): low polyreactivity

QVQLVESGGGLVQAGGSLRLSCAASGSIFQFNGMGWYRQAPGKERELVASINWSGGSTNYADSVMGRFTISRDNAKNTVYLQMNSLKAEDTAVYYCAVGHRIYRSRYNYWGQGTQVTVSS
polyreactivity (PSR sort gate): low polyreactivity

QVQLVESGGGLVQAGGSLRLSCAASGSIFQFYAMGWYRQAPGKERELVAAITGDGSTDYADSVKGRFTISRDNAKNTVYLQMNSLKPEDTAVYYCAADLWRYLGWYYIYHYDYWGQGTQVTVSS
polyreactivity (PSR sort gate): low polyreactivity

QVQLVESGGGLVQAGGSLRLSCAASGSIFQGNVMGWYRQAPGKERELVAAIRNSGGTTYYADSVKGRFTISRDNAKNTVYLQMNSLKPEDTAVYYCAARYINRYPKAQPTDRSIYYWGQGTQVTVSS
polyreactivity (PSR sort gate): high polyreactivity

QVQLVESGGGLVQAGGSLRLSCAASGSIFQGYAMGWYRQAPGKERELVAAITYSGGRTYYADSVKGRFTISRDNAKNTVYLQMNSLKPEDTAVYYCAALTRRVKKYDYWGQGTQVTVSS
polyreactivity (PSR sort gate): high polyreactivity

QVQLVESGGGLVQAGGSLRLSCAASGSIFQGYAMGWYRQAPGKERELVAGITSSGGRTRYADSVKGRFTISRDNAKNTVFLQMNSLKPEDTAVYYCAADYVRHIGYNYWGQGTQVTVSS
polyreactivity (PSR sort gate): high polyreactivity

QVQLVESGGGLVQAGGSLRLSCAASGSIFQGYSMGWYRQAPGKERELVAAITASGGSTYYADSVKGRFTISRDNAKNTVYLQMNSLKPEDTAVYYCATDSYWRQDLYRYEYWGQGTQVTVSS
polyreactivity (PSR sort gate): high polyreactivity

QVQLVESGGGLVQAGGSLRLSCAASGSIFQIYAMGWYRPAPGKERELVAAINSGGITKYADSVKGRFTISRDNAKNTVYLQMNSLKPEDTAVYYCAKRYGWPYGRFDYWGQGTQVTVSS
polyreactivity (PSR sort gate): low polyreactivity

QVQLVESGGGLVQAGGSLRLSCAASGSIFQPNAMGWYRQAPGKERELVASIRGRGGDTYYADSVKGRFTISRDTAKNTVYLQMNSLKPEDTAVYYCAADYRWGQGTQVTVSS
polyreactivity (PSR sort gate): low polyreactivity

QVQLVESGGGLVQAGGSLRLSCAASGSIFQWYAMGWYRQAPGKERELVAAISWDGDSTYYADSVKGRFTISRDNAKNTVYLQMNSMNPEDTAVYYCAADYEWEYEYWGQGTQVTVSS
polyreactivity (PSR sort gate): high polyreactivity

QVQLVESGGGLVQAGGSLRLSCAASGSIFQYYPMGWYRQAPGKERELVAAINSGGRTNYADSVKGRFTISRDNAKNTVYLQMNSLKPEDTAVYYCAKRLSTRASFGEEDSWGQGTQVTVSS
polyreactivity (PSR sort gate): low polyreactivity

QVQLVESGGGLVQAGGSLRLSCAASGSIFRAYAMGWYRQAPGKERELVAAISWGGGSTSYADSVKGRFTLSRDNAKNTVYLQMNSLNPEDTAVYYCNKVSLSKRRDYYWGQGTQVTVSS
polyreactivity (PSR sort gate): high polyreactivity

QVQLVESGGGLVQAGGSLRLSCAASGSIFRAYAMGWYRQAPGKERELVAAITWSGGRTFYADSVKGRFTISRDNAKNTVYLQMNSLKPEDTAVYYCAAFVYQRGRIYDYWGQGTQVTVSS
polyreactivity (PSR sort gate): high polyreactivity

QVQLVESGGGLVQAGGSLRLSCAASGSIFRAYAMGWYRQAPGKERELVAGITKSGGSTYYADSVKGRFTISRDHAKNTVYLQMNSLKPEDTAVYYCAAYRSRTYGYWGQGTQVTVSS
polyreactivity (PSR sort gate): high polyreactivity

QVQLVESGGGLVQAGGSLRLSCAASGSIFRDYVMGWYRQAPGKERELVAAISGNDGSTYYADSVKGRFTISRDNAKNTVYLQLNSLKPEDTAVYYCNADEASTFPQFYSYLDFDYWGQGTQVTVSS
polyreactivity (PSR sort gate): low polyreactivity

QVQLVESGGGLVQAGGSLRLSCAASGSIFRFYAMGWYIQAPGKERELVAGITWSGASTYYADSVKGRFTISRDNAKNTVYLQMNSLKPEDNAVYYCSAKSLIVRYDSWGQGTQVTVSS
polyreactivity (PSR sort gate): high polyreactivity

QVQLVESGGGLVQAGGSLRLSCAASGSIFRFYTMGWYRQAPGKERELVASITWTGGSTYYADSVKGRFTISRDNAKNTVYLQMNSLKPEDTAVYYCAARRYRRLVGRYDYWGQGTQVTVSS
polyreactivity (PSR sort gate): low polyreactivity

QVQLVESGGGLVQAGGSLRLSCAASGSIFRFYVMGWYRQAPGKEREMVAAISIGGSTNYADSVKGRFTISLDNAKNTVFLQMNSLKPEDTAVYYCAADYWYGAGMPHGTEFDYWGQGTQVTVSS
polyreactivity (PSR sort gate): low polyreactivity

QVQLVESGGGLVQAGGSLRLSCAASGSIFRGNAMGWYRQAPGKERELDATISNGGSTNYADAVKGRFTISRDNAKNTVYLQMNSLKPEDTAVYYCAKPLYKTWWGYAYDYWGQGTQVTVSS
polyreactivity (PSR sort gate): high polyreactivity

QVQLVESGGGLVQAGGSLRLSCAASGSIFRGNAMGWYRQAPGKERELVAGINRAGSTKYADSVKGRFTISRDNAKNTVYLLMNSLKPEETAVYYCAARGYSSEYDYWGKGTQVTVSS
polyreactivity (PSR sort gate): high polyreactivity

QVQLVESGGGLVQAGGSLRLSCAASGSIFRGNAMGWYRQAPGKERELVAVITWSGGSTYYADSVKGRFTISRDNAKNTVYLQMNSLKPEDTAVYYCNAARKQRVYFAGDYWGQGTQVTVSS
polyreactivity (PSR sort gate): high polyreactivity

QVQLVESGGGLVQAGGSLRLSCAASGSIFRGNGMGWYRQAPGKERELVAAISRSGGRTYYADSVKGRFTISRDNAKNTVYLQMNSLKPEDTAVYYCNAARTYQYDYWGQGTQVTVSS
polyreactivity (PSR sort gate): high polyreactivity

QVQLVESGGGLVQAGGSLRLSCAASGSIFRGYAMGCYRQAPGKERELVAAITSGGSTNYADSVKGRFTISRDNAKNTVYLQMNSLKPEDTAVYYCAKDLALVAPLSDYWGQGTQVTVSS
polyreactivity (PSR sort gate): low polyreactivity

QVQLVESGGGLVQAGGSLRLSCAASGSIFRGYAMGWYRQAPGKERELVAAINTSGGRTYYADSVKGRFTISRDNAKNTVYLQMNSLKPEDTAVYYCATEYYQAKREDYWGQGTQVTVSS
polyreactivity (PSR sort gate): high polyreactivity

QVQLVESGGGLVQAGGSLRLSCAASGSIFRGYAMGWYRQAPGKERELVAAISIGGRTYYADSVKGRFTISRDNAKNTVYLQMNSLKPEDTAVYYCAVQKPKTGKGKKDTYGRDGYWGQGTQVTVSS
polyreactivity (PSR sort gate): high polyreactivity

QVQLVESGGGLVQAGGSLRLSCAASGSIFRGYAMGWYRQAPGKGRELVAAISWSGASTYYADSVKGRFTISRDNAKNTVYLQMNSLKPEDTAVYYCAAVQWTGYPFDYWGQGTQVTVSS
polyreactivity (PSR sort gate): high polyreactivity

QVQLVESGGGLVQAGGSLRLSCAASGSIFRGYDMGWYRQPPGKERELVAAISRSGGITYYADSVKGRFTISRDNAKNTVYLNMNSLKPEVTAVYYCAASRAGGYYGKGYSWGQGTQVTVSS
polyreactivity (PSR sort gate): high polyreactivity

QVQLVESGGGLVQAGGSLRLSCAASGSIFRGYGMGWYRQAPGKERELVAAITSGDSTNYADSVKARFTLSRDNAKTTVYLQMNSLKPEDTAVNYCAAASTGRPSVSYDYWGQGTQVTVSS
polyreactivity (PSR sort gate): low polyreactivity

QVQLVESGGGLVQAGGSLRLSCAASGSIFRGYSMGWYRQAPGKERELVAAINTSGGRTYYADSVKGRFTISRDNAKNTVYLQMNSLKPEDTAVFYCATEYYQAKREDYWGQGTQVTVSS
polyreactivity (PSR sort gate): high polyreactivity

QVQLVESGGGLVQAGGSLRLSCAASGSIFRGYTLGWYRQAPGKERELVAAISTRGGSTYYADSVKGRFTISRDNANNTVYLQMNSLKPEDTAVYYCNARSRGRASGYDYWGQVTQVTVSS
polyreactivity (PSR sort gate): high polyreactivity

QVQLVESGGGLVQAGGSLRLSCAASGSIFRINAMGWYRQAPGKERELVAAITRSGGSTFYADSVKGRFTISRDNAKNTVYLQMNSLKPEDTAVYYCAAVWYYSTVPARYEYWGQGTQVTVSS
polyreactivity (PSR sort gate): low polyreactivity

QVQLVESGGGLVQAGGSLRLSCAASGSIFRIYAKGWYRQAPGKERELVAAISSTGSTSYADSVKGRFTISRDNAKNTVYLQMNSLKPEDTAVYYCAAGVYALRRDYWVQGTQVTVSS
polyreactivity (PSR sort gate): low polyreactivity

QVQLVESGGGLVQAGGSLRLSCAASGSIFRIYAMGWYRPAPGKERELVAAISRGGGSTYYADSVKGRFTISRDNAKNTVYLQMNSLKPEDTAVYYCAARSPYRYYYWGQGTQVTVSS
polyreactivity (PSR sort gate): high polyreactivity

QVQLVESGGGLVQAGGSLRLSCAASGSIFRIYAMGWYRQAPGKERELVAGISKSGGSTYYADSVKGRFTISRDNAKNTVYLQMNSLKPEDTAVYYCAAGYYYFWTYDYWGQGTQVTVSS
polyreactivity (PSR sort gate): low polyreactivity

QVQLVESGGGLVQAGGSLRLSCAASGSIFRKNAMGWYRQAPGKERELVAAITGTGRTTYADSEKGRFTISRDNAKNTVYLQMNSLKPEDTAVYYCAADVNYYQHRLYYWGQGTQVSVSS
polyreactivity (PSR sort gate): low polyreactivity

QVQLVESGGGLVQAGGSLRLSCAASGSIFRKYTMGWYRQAPGKERELVAAISGTAGRTYYADSVKGRFTISRDNAKNTVYLQMNSLKPEDTAVYYCAARRFGGYGYNYWGQGTQVTVSS
polyreactivity (PSR sort gate): high polyreactivity

QVQLVESGGGLVQAGGSLRLSCAASGSIFRLYALGWYRQAPGKERELVAAISRRGGSTNYADSVKGRFTISRDNAKNTVYFQMNSLKPEDTAVYYCARDVDTHYPYAYDYWGQGTQVTVSS
polyreactivity (PSR sort gate): high polyreactivity

QVQLVESGGGLVQAGGSLRLSCAASGSIFRNYAMGWYRQAPGKERELVAAITSIGGGTYYADSVKGRFTISRDNAKNTVYLQMNSLKPEDTAVYYCAAVSGPFVQTSGNGEYDYWGQGTQVTVSS
polyreactivity (PSR sort gate): low polyreactivity

QVQLVESGGGLVQAGGSLRLSCAASGSIFRPNTMGWYRQAPGKERELVAAINWSGDDTYYADSVKGRFTISRDNAKNTVYLQMNSLKPEDTAVYYCAVDLFDGVTKLNYDYWGQGTQVTVSS
polyreactivity (PSR sort gate): low polyreactivity

QVQLVESGGGLVQAGGSLRLSCAASGSIFRPNVMGWYRQAPGKERELVAAITGSGGSTYYADSVKGRFTISRDNAKNTVYLQMNSLKPEDTAVYYCNARTVSRGRYTYDYWGQGTQVTVSS
polyreactivity (PSR sort gate): low polyreactivity

QVQLVESGGGLVQAGGSLRLSCAASGSIFRPYAMGWYRQAPGKEREFVAAITYGGGNTYYADSVKGRFTISRDNAKNTFYLQMNILKPEDTAVYYCNKLSRGFSPKYDYWGQGTQVTVSS
polyreactivity (PSR sort gate): high polyreactivity
